Two molecules from US20030059461A1 (SIBTECH, published 2003) can be followed below.

Experiment [1] addresses T1, KDR/flk-1 receptor on 293/KDR or PAE/KDR cells (UniProt P35968 20-1356, limits assumed).
T1 construct: whole, on cells; also called cellular KDR/flk-1 receptors
In words: Scatchard analysis on 293/KDR cells.

Experiment [2] has as its target T1, KDR/flk-1 receptor on 293/KDR or …. In words: Scatchard analysis of 125I-labelled protein binding to 293/KDR cells.
Another experiment addresses T2, soluble KDR-Fc receptor (human, UniProt P35968 20-764, limits assumed).
T2 construct: extracellular domain; also called soluble, secreted extracellular domain of the KDR/flk-1 receptor fused to the Fc portion of human IgG; not shown: Fc portion of human IgG
In words: competition with 125I-VEGF165 for soluble KDR-Fc.

In experiment [3] the target is T1, KDR/flk-1 receptor on 293/KDR or …. Described as described in Example 1.G.2 (binding to KDR/flk-1).

T1 sequence (P35968 20-1356 limits assumed): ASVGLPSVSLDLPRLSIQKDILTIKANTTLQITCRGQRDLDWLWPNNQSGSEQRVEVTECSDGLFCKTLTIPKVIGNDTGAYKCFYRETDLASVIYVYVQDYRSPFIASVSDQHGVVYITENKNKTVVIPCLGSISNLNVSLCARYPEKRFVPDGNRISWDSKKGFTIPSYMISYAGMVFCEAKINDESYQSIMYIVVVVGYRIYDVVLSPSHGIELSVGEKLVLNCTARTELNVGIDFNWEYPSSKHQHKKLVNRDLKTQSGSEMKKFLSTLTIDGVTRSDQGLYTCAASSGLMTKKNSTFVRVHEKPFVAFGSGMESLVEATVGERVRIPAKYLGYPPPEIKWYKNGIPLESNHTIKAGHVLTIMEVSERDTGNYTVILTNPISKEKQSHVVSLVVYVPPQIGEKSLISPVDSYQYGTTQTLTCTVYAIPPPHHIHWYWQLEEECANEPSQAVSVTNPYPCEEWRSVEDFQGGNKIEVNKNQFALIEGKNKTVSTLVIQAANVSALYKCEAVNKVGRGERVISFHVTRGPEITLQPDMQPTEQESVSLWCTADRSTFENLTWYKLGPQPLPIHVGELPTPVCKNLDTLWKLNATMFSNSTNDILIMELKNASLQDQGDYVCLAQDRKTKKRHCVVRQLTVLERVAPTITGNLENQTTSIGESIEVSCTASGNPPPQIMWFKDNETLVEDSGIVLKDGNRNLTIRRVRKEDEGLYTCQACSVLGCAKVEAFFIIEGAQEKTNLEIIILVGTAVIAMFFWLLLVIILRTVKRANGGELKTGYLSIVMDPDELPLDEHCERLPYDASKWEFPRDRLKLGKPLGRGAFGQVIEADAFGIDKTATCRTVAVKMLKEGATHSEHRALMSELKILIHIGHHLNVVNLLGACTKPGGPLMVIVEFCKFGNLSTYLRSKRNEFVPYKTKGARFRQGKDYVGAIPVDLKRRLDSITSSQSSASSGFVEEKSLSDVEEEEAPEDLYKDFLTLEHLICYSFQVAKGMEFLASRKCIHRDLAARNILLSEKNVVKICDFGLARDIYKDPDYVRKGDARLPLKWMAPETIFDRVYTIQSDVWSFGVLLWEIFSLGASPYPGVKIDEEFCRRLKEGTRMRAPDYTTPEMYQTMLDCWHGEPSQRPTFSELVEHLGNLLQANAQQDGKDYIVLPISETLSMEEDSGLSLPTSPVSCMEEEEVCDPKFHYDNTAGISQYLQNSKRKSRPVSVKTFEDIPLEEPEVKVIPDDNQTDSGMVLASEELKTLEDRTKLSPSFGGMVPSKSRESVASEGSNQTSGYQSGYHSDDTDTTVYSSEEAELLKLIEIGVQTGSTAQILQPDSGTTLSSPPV
T2 sequence (P35968 20-764 limits assumed): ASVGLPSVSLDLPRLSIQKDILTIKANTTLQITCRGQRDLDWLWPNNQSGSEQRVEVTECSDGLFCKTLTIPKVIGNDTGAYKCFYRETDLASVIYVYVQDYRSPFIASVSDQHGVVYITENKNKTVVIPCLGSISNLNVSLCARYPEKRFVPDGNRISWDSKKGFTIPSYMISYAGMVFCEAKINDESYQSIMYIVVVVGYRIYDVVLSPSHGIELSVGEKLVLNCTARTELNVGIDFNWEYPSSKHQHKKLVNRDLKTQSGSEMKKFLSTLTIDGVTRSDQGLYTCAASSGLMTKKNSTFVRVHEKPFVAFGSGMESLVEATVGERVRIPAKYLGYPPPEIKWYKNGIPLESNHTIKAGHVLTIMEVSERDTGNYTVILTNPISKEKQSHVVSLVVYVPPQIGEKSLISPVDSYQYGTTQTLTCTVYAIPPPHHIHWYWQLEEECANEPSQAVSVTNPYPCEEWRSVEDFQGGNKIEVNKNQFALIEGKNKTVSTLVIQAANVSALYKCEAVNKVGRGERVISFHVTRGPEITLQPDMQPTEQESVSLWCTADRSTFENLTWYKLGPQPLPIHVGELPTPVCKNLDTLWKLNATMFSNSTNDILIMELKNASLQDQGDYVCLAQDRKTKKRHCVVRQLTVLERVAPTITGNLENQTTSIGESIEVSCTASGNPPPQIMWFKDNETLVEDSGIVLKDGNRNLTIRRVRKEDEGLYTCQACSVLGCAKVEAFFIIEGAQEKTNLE
Excerpt for soluble KDR-Fc receptor: One test for the functional activity of VEGF fusion proteins is binding to KDR/flk-1 receptors.

B1: txFVEGF121 fusion protein (ligand, human, UniProt P15692-9 27-147, looked up, not shown: large carriers)
chain: APMAEGGGQNHHEVVKFMDVYQRSYCHPIETLVDIFQEYPDEIEYIFKPSCVPLMRCGGCCNDEGLECVPTEESNITMQIMRIKPHQGQHIGEMSFLQHNKCECRPKKDRARQEKCDKPRR
modifications: 125I label in the Scatchard experiment
notes: mature; also called txVEGF121
Turning to B1, in experiment [1], the “fold lower affinity than VEGF165” value is about 10 fold. Besides, the Kd in experiment [2] was found to be 3.5 nM.

B2: txFVEGF189 fusion protein (ligand, human, UniProt P15692-2 27-215, looked up, not shown: large carriers)
chain: APMAEGGGQNHHEVVKFMDVYQRSYCHPIETLVDIFQEYPDEIEYIFKPSCVPLMRCGGCCNDEGLECVPTEESNITMQIMRIKPHQGQHIGEMSFLQHNKCECRPKKDRARQEKKSVRGKGKGQKRKRKKSRYKSWSVPCGPCSERRKHLFVQDPQTCKCSCKNTDSRCKARQLELNERTCRCDKPRR
notes: mature; also called txVEGF189
With B2, the binding result (with soluble KDR-Fc receptor; in experiment [3]) was “binds” throughout.

For orientation: Kd means the constant that tells how readily two partners part at equilibrium.
